Numbering of substitutions follows the chain as printed.
Experiments:
PC-3 xenografts = test: PC-3 human prostate cancer xenograft model; format: in vivo, NOD/SCID mice
Procedure: Procedures involving animals and their care were conducted according to the guidelines of the Academia Sinica Institutional Animal Care and Utilization Committee in compliance with national and international laws and policies. Non-obese diabetic-severe combined immunodeficiency (NOD/SCID) mice were purchased from the National Laboratory Animal Center (Taiwan). The human prostate cancer xenograft tumor model was developed by subcutaneously injecting 2×10^6 PC-3 cells into the dorsal flank of a six-week old male mouse. Animals were monitored daily for general health, and body weights were measured twice weekly. Tumor size was measured with slide calipers and calculated as length×width^2×0.52. […] An antibody dose of 20 mg/kg was injected twice a week for four weeks. For combination therapy, docetaxel (ScinoPharm Taiwan) was also intravenously administered at a dose of 5 mg/kg once a week for three weeks. At the end of the experiment, tumor tissue and visceral organs were removed and fixed for histological analysis.
For tumor blood vessel studies, samples were fixed in OCT. Frozen blocks were cut into 50 μm sections, and frozen tumor tissue sections were fixed with 1% paraformaldehyde, permeabilized with 0.1% TRITON™-X 100, blocked with normal horse serum (Vector), and then incubated for 1 hour at room temperature (RT) with a 1:100 dilution of the primary antibody (rat anti-mouse CD31 (PECAM-1); BD Bioscience). Subsequently, the tissue sections were incubated with Alexa 549-conjugated goat anti-rat antibody (Invitrogen) at room temperature for 1 hour. Nuclei were stained with DAPI, and sections were then mounted with fluorescent mounting solution. Immunofluorescent images were acquired using a Zeiss Axiovert 200M microscope. Positive areas of CD31 endothelial cells were quantified by pixel area counting and normalized with DAPI staining using ImageJ software under low power magnification.
The frozen tumor tissue sections were fixed with 1% paratbrmaldehyde and permeabilized with 0.1% TRITON™-X 100, before being incubated with terminal deoxynucleotidyltransferase-mediated dUTP nick end labeling reaction mixture (Roche Diagnostics) at 37° C. for 1 hour. After washing three times with PBS, the slides were incubated with FITC-anti-DIG antibody (1:2000) and DAPI (1:500). Slides were mounted with mounting solution and visualized under a fluorescent microscope. Slides were independently examined by three individuals. Areas with TUNEL-positive cells were quantified by pixel area counting, and normalized to DAPI staining using ImageJ software.

murine VEGFR2 protein = murine VEGFR2 protein (Mus musculus, UniProt P35918, DEL223-227); test: Cross-reactivity with murine VEGFR2; format: binding
VEGFR2 signaling pathway = test: Western blot of VEGF-A-induced phosphorylation in HUVECs; format: cell-based, human; details: 100 nM antibody
Description: Western blots were pertbrmed using standard protocols, as previously described. The primary antibodies were purchased from Cell Signaling Technology and used at a 1,000-fold dilution for protein detection; the antibodies used are as follows: anti-VEGFR2 (clone 55B11), anti-phospho-VEGFR2 (Tyr1175; clone 19A10), anti-FAK, anti-phospho-FAK (Tyr397; cloneD20B1), anti-p42/44 MAPK, anti-phospho-p42/44 MAPK (Thr202/Tyr204; cloneD13.14.4E), anti-Akt, and anti-phospho-Akt (Ser473).

[1] = tested on: HL-60 leukemia xenografts; test: HL-60 leukemia xenograft model; format: in vivo, NSG mice
Procedure: For systemic leukemia engraftment studies, NOD/SCID/IL2Rγ−/− (NSG) mice were obtained from the Animal Center of the Institute of Cellular and Organismic Biology, Academia Sinica. Six-week old females were intravenously injected with 5×10^6 HL-60 cells through the tail vein. Animals were monitored daily for general health, and body weights were measured twice weekly. […] Mice were observed daily for signs of toxicity, and the survival times were recorded. At the end-point of treatment, the visceral organs of each mouse were removed and fixed for further histological examination.
Tumors and indicated organs were dissected from mice and fixed in 4% paraformaldehyde overnight. Fixation and processing of specimens were performed in accordance with standard procedures. The specimens were embedded in paraffin and cut into […] sections. Rehydrated paraffin-embedded tissue sections were stained with Mayer's hematoxylin solution (Wako) for 5 minutes and washed with water for 1-2 minutes. The slides were then stained with eosin solution (Wako) for 10 minutes. Tissues were visualized with Tissue Gnostics microscopes.

VEGFR2-Fc [2] = molecular target: T1, VEGFR2-Fc (Homo sapiens, UniProt P35968); test: Screening of anti-VEGFR2 phage clones by ELISA; format: binding; details: 1×10^9 cfu phage titer
T1 construct: purchased R&D Systems
Procedure: (§1) The selected phages were further examined by ELISA screening. The 96-well plates were coated with 1 μg/ml of VEGFR2-Fc, Met-Fc (R&D), or BSA (Sigma) protein in 0.1 M sodium bicarbonate overnight at 4° C. After blocking with 1% BSA in PBS (w/v) for 2 hr at room temperature, 70-randomly selected phage clones were added to the plates at a 1:2 dilution in 1% BSA, and incubated for 1 hr at room temperature. Following washes with PBST, the plates were incubated with a 1:2000 dilution of horseradish peroxidase (HRP)-conjugated mouse anti-M13 phage antibody (GE) for 1 hr. After washing with PBST, the colorimetric reaction was developed with the peroxidase substrate ortho-phenylenediamine (OPD; Sigma) plus H2O2 for 15 min, and then terminated by the addition of 3 N HCl. The absorbance at 490 nm was determined using a microplate reader (SpectraMax, Molecular Devices). Plasmid DNA of positive clones were isolated and sequenced using the pCANTAB5 sequencing primer set.

Met-Fc = test: Phage clone ELISA on control protein; format: binding
Procedure: as §1

[3] = tested on: VEGFR2 on the cell surface of HUVEC; test: Flow cytometry binding to HUVECs; format: cell-based, human; details: FACS; 1×10^10 cfu
Procedure: About 1×10^4 HUVEC were incubated with the selected anti-VEGFR2 phage clones at 4° C. for 1 hour in FACS buffer (PBS containing 1% fetal bovine serum). After the cells were washed with FACS buffer, they were first incubated with mouse anti-M13 phage Ab for 1 hr at 4° C., and then with R-phycoerythrin-conjugated goat anti-mouse IgG (Jackson Immuno Research) for 30 min at 4° C. Flow cytometry was performed with a FACSCantoII (BD), and emission fluorescence intensity was measured with FACS Diva software (BD) to quantitatively compare binding affinities.

VEGFR2-Fc [4] = molecular target: T1, VEGFR2-Fc; test: ELISA binding of R2S12 and R2S12-AF scFv to VEGFR2-Fc (affinity maturation)
Procedure: (A) Affinity maturation for R2S12. […] Subsequently, the beads were washed four times with PBS containing 1% TWEEN™ 20. After four rounds of biopanning, the recovery rate of the phages was increased by 929-fold over that of the first round. (B) Comparison of the binding activity of the indicated concentrations of R2S12 and R2S12-AF scFv to VEGFR2-Fc protein, as assayed by ELISA. Error bar, SE.
Affinity maturation was performed as previously described. […] This synthetic library was used to perform biopanning for VEGFR2-Fc-immobilized DYNABEADS®. After four to five rounds of stringent in vitro biopanning, positive clones were screened and identified by ELISA.

[5] = 20 mg/kg i.v. twice weekly from day 3

T1 sequence (P35968 with tags, fused parts or gaps limits assumed): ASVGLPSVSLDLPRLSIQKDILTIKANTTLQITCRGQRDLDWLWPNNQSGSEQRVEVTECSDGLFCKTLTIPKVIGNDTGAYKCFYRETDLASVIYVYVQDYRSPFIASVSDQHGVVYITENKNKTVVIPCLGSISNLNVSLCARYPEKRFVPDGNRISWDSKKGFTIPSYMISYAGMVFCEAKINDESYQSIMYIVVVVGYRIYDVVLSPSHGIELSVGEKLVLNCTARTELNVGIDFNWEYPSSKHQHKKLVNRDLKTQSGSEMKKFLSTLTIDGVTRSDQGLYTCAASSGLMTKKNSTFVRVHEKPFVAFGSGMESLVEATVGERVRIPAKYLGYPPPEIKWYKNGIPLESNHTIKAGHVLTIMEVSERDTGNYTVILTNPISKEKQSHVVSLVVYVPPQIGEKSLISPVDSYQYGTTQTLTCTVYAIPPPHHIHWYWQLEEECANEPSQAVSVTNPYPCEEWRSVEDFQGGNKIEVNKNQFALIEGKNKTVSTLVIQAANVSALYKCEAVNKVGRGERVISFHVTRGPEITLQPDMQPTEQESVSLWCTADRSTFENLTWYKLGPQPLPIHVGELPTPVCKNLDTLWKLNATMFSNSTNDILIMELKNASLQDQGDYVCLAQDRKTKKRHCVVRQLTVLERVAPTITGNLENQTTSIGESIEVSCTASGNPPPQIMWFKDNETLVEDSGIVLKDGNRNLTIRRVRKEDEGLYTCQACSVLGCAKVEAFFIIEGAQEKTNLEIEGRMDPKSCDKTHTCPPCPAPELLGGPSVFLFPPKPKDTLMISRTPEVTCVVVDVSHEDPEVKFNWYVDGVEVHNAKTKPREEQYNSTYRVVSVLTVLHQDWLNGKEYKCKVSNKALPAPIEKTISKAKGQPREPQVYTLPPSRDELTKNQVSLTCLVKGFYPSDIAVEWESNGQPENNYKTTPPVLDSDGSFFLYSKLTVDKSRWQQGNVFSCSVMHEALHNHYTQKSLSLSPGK
murine VEGFR2 protein, sequence (P35918 with tags, fused parts or gaps DEL223-227): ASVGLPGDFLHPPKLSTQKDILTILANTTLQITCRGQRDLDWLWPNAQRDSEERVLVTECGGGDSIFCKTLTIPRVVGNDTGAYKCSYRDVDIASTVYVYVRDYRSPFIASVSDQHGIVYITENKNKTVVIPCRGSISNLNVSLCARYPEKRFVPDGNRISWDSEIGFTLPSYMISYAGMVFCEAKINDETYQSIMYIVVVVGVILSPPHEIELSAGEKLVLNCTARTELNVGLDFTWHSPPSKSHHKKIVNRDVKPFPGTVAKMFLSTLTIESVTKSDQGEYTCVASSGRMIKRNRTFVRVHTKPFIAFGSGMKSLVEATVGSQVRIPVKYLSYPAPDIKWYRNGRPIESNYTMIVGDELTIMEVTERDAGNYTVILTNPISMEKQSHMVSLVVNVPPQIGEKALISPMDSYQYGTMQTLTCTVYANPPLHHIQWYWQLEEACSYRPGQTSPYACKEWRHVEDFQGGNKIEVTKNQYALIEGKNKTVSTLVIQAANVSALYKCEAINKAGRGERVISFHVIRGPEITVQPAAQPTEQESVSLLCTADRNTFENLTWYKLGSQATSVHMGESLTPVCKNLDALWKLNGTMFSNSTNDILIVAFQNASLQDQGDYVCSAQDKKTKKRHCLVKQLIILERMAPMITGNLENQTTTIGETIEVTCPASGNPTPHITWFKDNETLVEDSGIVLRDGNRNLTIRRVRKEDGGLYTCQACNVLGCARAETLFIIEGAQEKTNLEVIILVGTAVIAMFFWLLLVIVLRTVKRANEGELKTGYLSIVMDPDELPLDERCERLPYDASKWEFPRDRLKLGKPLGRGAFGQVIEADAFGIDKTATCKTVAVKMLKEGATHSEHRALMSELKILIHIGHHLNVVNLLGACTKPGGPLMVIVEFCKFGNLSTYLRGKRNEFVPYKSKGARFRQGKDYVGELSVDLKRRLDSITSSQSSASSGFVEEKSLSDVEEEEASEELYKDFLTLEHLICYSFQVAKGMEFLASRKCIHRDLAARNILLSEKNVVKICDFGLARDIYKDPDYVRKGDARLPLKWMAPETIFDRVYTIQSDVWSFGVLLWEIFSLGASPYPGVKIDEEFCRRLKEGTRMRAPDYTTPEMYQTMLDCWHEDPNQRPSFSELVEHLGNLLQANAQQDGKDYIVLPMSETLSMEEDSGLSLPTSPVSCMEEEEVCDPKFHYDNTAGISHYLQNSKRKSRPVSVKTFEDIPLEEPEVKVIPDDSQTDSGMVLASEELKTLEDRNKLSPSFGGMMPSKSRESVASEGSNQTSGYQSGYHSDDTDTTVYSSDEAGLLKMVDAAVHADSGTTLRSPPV

IMC-1121B: FDA-approved anti-VEGFR2 human antibody (Ramucirumab), expressed by the applicant as human IgG1 [reference compound]
tumor growth reduction (PC-3 xenografts; by day 38, antibody 20 mg/kg i.v. twice a week, docetaxel 5 mg/kg i.v. once a week): 45% | changes in body weight during the treatment period (PC-3 xenografts; compared to the NHIgG group or docetaxel alone): no significant changes | docetaxel-induced toxicity (body weight as surrogate) (PC-3 xenografts; in combination with docetaxel): do not enhance | cross-reaction / binding to murine VEGFR2 (murine VEGFR2 protein): not | FAK phosphorylation (VEGFR2 signaling pathway): only marginally reduced | median survival [1, 5]: 43 days | survival time [1, 5]: 56 days | lymph nodes with leukemia infiltration ([1]; n=9 per group): five of nine

B1: R2PC12: phage-displayed human scFv clone binding VEGFR2; VH CDR1-3 SEQ ID NO: 6-8, VL CDR1/CDR3 SEQ ID NO: 9, 10 (antibody, V domains shown)
VH: QVNLRESGGGLVKPGGSLRLSCAASGFTFGSYTMNWVRQAPGKGLEWVASITSGSSYIFYTDSVKGRFTISRDNSRSSLFLQMNSLRAEDTAIYYCARGSASAFDIWGQGTMVTVSS
VL: DIQMTQSPSSLSASVGDRVTITCKASDDIINYLNWYQQKPGEAPKLLIYDASILETGVPSRFSGSGSGTDFTFTISSLQPEDIATYYCQQYDILPLTFGGGTKLEIK
binding of phage clones to VEGFR2-Fc (VEGFR2-Fc [2]): bind highly | binding of phage clones to c-Met-Fc control protein (Met-Fc): not | binding of phage clones to VEGFR2 on HUVEC cell surface [3]: greatest reactivity

B2: R2S12AF: affinity-matured scFv clone of R2S12; VH SEQ ID NO: 76, VL SEQ ID NO: 78, VL-CDR3 QQLDDIPIT (antibody, V domains shown)
VH: B1 VH
VL: B1 VL with Y91L, I93D, L94I, L96I
modifications: scFv linker; VH region of R2S12 or R2S12-AF; VL region of R2S12AF
binding activity to VEGFR2-Fc compared with parental clone R2S12 (VEGFR2-Fc [4]): superior binding activity

— patent publication US10196447B2, “Anti-vascular endothelial growth factor receptor 2 (VEGFR2) antibody and methods of use thereof for detecting VEGFR2 and for inhibiting tumor growth, tumor angiogenesis and/or inducing cancer cell cytotoxicity” (Academia Sinica, priority 2015, dated 2019)
